From PMC5666114 come the findings set out here.

This experiment addresses Anbu-1 protein from Pseudomonas aeruginosa (Pa-Anbu), wild type (Pseudomonas aeruginosa PAO1). Kind of experiment: SEC-MALS; static light scattering after Superdex S200 10/300 GL; 100 µl protein at 0.5, 1 or 2 mg/ml; 30 mM MOPS/NaOH pH 7.2, 150 mM NaCl; three independent experiments. A general note: Size exclusion chromatography separates by hydrodynamic size, large species first.

Regarding “Anbu-1 protein from Pseudomonas aeruginosa (Pa-Anbu), wild type (natural protein)”, the stoichiometry N is 12.

In general, stoichiometry N refers to a count of units in the complex or per binding partner.
